Measured values published in paper PMC9242090 (The Journal of Experimental Medicine, 2022).
No end group written: not given here.

T1: Peptide 29 (Pep29) (Plasmodium falciparum 3D7, also: biotin, position not given here)
T1 chain: NANPNANPNANPNAN


Molecular target: T1, Peptide 29 (Pep29)
Assay: BLI

Row | Binder | binding result
1 | CIS43_Var11 Fab (Fab, V domains shown) VH: QRQLVQSGAEVKKPGASVKVSCKASGYTFTSYAIHWVRQAPGQRLEWMGWIKAGNGNTRYSQKFQDRVTITRDTSTTTAYMELSSLRSEDTAVYYCALLTVLTPDDAFDIWGQGTMVTVSS VL: not shown | binds
2 | CIS43_Var18 Fab (Fab, V domains shown) VH: QRQLVQSGAEVKKPGASVKVSCKASGYTFTSYAIHWVRQAPGQRLEWMGWIKAGNGNTRYSQKFQDRVTITRDTSTTTAYMELSSLRSEDTAVYYCVLLTVLTPDDAFDIWGQGTMVTVSS VL: not shown | binds
